The test system of series [1] is internally quenched peptide probe with CM AWGLSGRS (SEQ ID NO: 686).
Series [2] deals with internally quenched peptide probe with CM LSGKSPWGL (SEQ ID NO: 178).
The test system of series [3] is internally quenched peptide probe with CM LSGRSPAGL (SEQ ID NO: 694).
Series [4] concerns internally quenched peptide probe with CM LSGRSPWGL (SEQ ID NO: 177).
Series [5] has as its system internally quenched peptide probe with CM PAGLSGRS (SEQ ID NO: 687).
Series [6] has as its system internally quenched peptide probe with CM PWALSGRS (SEQ ID NO: 688).
In series [7] the test system is internally quenched peptide probe with CM PWGASGRS (SEQ ID NO: 689).
Series [8] deals with internally quenched peptide probe with CM PWGLAGRS (SEQ ID NO: 690).
For series [9], the system named is internally quenched peptide probe with CM PWGLRS (SEQ ID NO: 48).
Series [10] deals with internally quenched peptide probe with CM PWGLSARS (SEQ ID NO: 691).
Series [11] relates to internally quenched peptide probe with CM PWGLSG (SEQ ID NO: 684).
For series [12], the system named is internally quenched peptide probe with CM PWGLSGAS (SEQ ID NO: 692).
For series [13], the system named is internally quenched peptide probe with CM PWGLSGKS (SEQ ID NO: 150).
In series [14] the test system is internally quenched peptide probe with CM PWGLSGR (SEQ ID NO: 163).
Series [15] has as its system internally quenched peptide probe with CM PWGLSGRA (SEQ ID NO: 693).
For series [16], the system named is internally quenched peptide probe with CM PWGLSGRS (SEQ ID NO: 12).
In series [17] the test system is internally quenched peptide probe with CM RSPWGL (SEQ ID NO: 90).
Series [18] relates to internally quenched peptide probe with CM WGLSGRS (SEQ ID NO: 685).

Sequence of matrix metalloprotease 9 (MMP9) (chain, as listed by the source): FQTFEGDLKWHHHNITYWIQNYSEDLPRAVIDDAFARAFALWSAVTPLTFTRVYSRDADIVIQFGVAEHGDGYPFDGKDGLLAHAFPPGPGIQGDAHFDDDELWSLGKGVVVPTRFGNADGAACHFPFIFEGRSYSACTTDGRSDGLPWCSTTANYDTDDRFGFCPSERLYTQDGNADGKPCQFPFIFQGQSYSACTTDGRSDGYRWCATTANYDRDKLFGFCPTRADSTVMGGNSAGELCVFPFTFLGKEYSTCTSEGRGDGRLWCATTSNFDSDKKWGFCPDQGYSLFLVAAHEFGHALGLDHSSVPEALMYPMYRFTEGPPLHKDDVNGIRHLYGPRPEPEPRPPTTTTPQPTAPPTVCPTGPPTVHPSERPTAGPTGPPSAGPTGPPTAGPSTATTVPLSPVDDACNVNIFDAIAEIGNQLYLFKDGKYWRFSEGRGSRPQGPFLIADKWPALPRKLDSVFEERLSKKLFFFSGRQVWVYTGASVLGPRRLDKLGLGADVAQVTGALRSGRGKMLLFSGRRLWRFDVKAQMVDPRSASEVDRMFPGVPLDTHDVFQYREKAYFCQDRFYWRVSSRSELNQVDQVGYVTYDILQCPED

With matrix metalloprotease 9 (MMP9), the Probe Cleavage (pM/s) in series [1] was 2070 pM/s; in series [2], 630 pM/s; in [3], 1630 pM/s; in series [4], 1070 pM/s; in [5], 16200 pM/s; in series [6], 12800 pM/s. Besides, the Probe Cleavage (pM/s) in series [7] was 456 pM/s; in series [8], 13700 pM/s; in [9], 3830 pM/s; in series [10] it was 17500 pM/s; in series [11], 13000 pM/s; in [12], 16400 pM/s. Moreover, the Probe Cleavage (pM/s) in series [13] turned out to be 5360 pM/s; in series [14] it was 17200 pM/s; in [15], 17500 pM/s; in series [16], 7620 pM/s; in [17], 25500 pM/s; in series [18], 581 pM/s. For the same substance, the Probe Cleavage (kcat/KM (M^-1 s^-1)) was found to be 150000 M⁻¹ s⁻¹ in series [9], 130000 M⁻¹ s⁻¹ in series [13], 150000 M⁻¹ s⁻¹ in series [16] and 870000 M⁻¹ s⁻¹ in [17].

(Values after patent US20250215095.)
